Here are results for five molecules from publication PMC10003557 (International Journal of Molecular Sciences, 2023).

Test [1] has as its target T1, SARS-CoV-2 receptor-binding domain (RBD) wild-type (WT) (SARS-CoV-2 (Wuhan, WT), UniProt P0DTC2). Nature of the test: cell-based or functional assay.
The target in test [2] is T1, SARS-CoV-2 receptor-binding domain …. Nature of the test: bead-based flow cytometry (iQue3) blocking assay. To be noted: both partners purified.
The target in test [3] is T2, biotinylated RBD protein (SPD-C82E9, Acro Biosystems) (SARS-CoV-2 (WT), UniProt P0DTC2).
T2 construct: also called Biotinylated RBD WT; RBD-Qbeads
Nature of the test: bead-based flow cytometry (iQue3, Qbeads) competition assay. As to conditions: both partners purified.

Test [4] concerns the target T1, SARS-CoV-2 receptor-binding domain …. Nature of the test: SPR; Biacore; antibodies captured on the chip (Protein A CM5 chip by the methods, anti-IgG antibody by the results), RBD WT flown over; 1:1 Langmuir fit. As to conditions: both partners purified.
Test [5] has the same target. Nature of the test: ELISA; binding ELISA of purified hIgG1 on RBD; EC50. As to conditions: both partners purified.
For test [6] the target is unchanged. Nature of the test: bead-based flow cytometry (iQue3) blocking assay. To be noted: both partners purified. This is another data set of the same source.
In test [7] the target is T2, biotinylated RBD protein (SPD-C82E9, …). Nature of the test: bead-based flow cytometry (iQue3, Qbeads) competition assay. As to conditions: both partners purified. The source holds these as a separate data set.
Test [8] has as its target T1, SARS-CoV-2 receptor-binding domain …. Nature of the test: SPR; Biacore; antibodies captured on the chip (Protein A CM5 chip by the methods, anti-IgG antibody by the results), RBD WT flown over; 1:1 Langmuir fit. To be noted: both partners purified. The source holds these as a separate data set.

B1: P5E1-A6 (hIgG1) (antibody, V domains shown)
VH: EVQLLESGGGLVQPGGSLRLSCAASGFTFTSTAMSWVRQAPGKGLEWVSGIYGRGSTRYADSVKGRFTISRDNSKNTLYLQMNSLRAEDTAVYYCARGGSWFDPWGQGTLVTVSS
VL: not shown
Regarding B1, in test [1], the “PRNT: authentic SARS-CoV-2 on Vero E6 cells, NC50; pair blocked: RBD with hACE-2” value (shortened to “PRNT … with hACE-2”) came out at 43.9 nM. The same molecule gave an IC50 in test [2] of 0.61 nM. In addition, the 50% inhibitory concentration (IC50) in test [3] turned out to be 0.06 nM. In test [4], this molecule came in with a dissociation constant (Kd) of 0.89 nM, an off-rate constant (koff) of 0.000527 s⁻¹ and an association rate constant (kon) of 588000 M⁻¹ s⁻¹.

B2: P5E1 (hIgG1) (antibody, V domains shown)
VH: EVQLLESGGGLVQPGGSLRLSCAASGFTFSDSAMSWVRQAPGKGLEWVSGIYGRGGYTYYADSVKGRFTISRDNSKNTLYLQMNSLRAEDTAVYYCARGGSWFDPWGQGTLVTVSS
VL: not shown
As to B2, the concentration giving a half-maximal response (EC50) in test [5] amounted to 0.97 nM. This molecule came in with a half-maximal inhibitory concentration (IC50) in test [6] of 2.63 nM. In addition, the IC50 in test [7] is 2.15 nM. Further, in test [8], binding was put at a Kd of 27.1 nM, the koff turned out to be 0.00433 s⁻¹ and the kon amounted to 160000 M⁻¹ s⁻¹.

B3: P5A10-G2 (hIgG1) (antibody, V domains shown)
VH: EVQLLESGGGLVQPGGSLRLSCAASGFTSSNTWMSWVRQAPGKGLEWVSGIDGRGGSTYYADSVKGRFTISRDNSKNTLYLQMNSLRAEDTAVYYCATDSSTQPWYFDLWGRGTLVTVSS
VL: EIVLTQSPATLSLSPGERATLSCRASQSVSSNLAWYQQKPGQAPRLLIYDASNRATGIPARFSGSGSGTDFTLTISSLEPEDFAVYYCQQREREPITFGQGTKVEIK
Turning to B3, in test [1], the “PRNT … with hACE-2” value is 61.1 nM. The IC50 in test [2] stood at 1.18 nM. In test [3], this molecule had an IC50 of 1.23 nM. In test [4], this molecule came in with a Kd of 0.39 nM, a koff of 0.000578 s⁻¹ and a kon of 1.49e+06 M⁻¹ s⁻¹.

B4: P5A10-G4 (hIgG1) (antibody, V domains shown)
VH: EVQLLESGGGLVQPGGSLRLSCAASGFTFSSYWMSWVRQAPGKGLEWVSGISGSGRRAFGGSTYYADSVKGRFTISRDNSKNTLYLQMNSLRAEDTAVYYCATDSSTQPWYFDLWGRGTLVTVSS
VL: EIVLTQSPATLSLSPGERATLSCRASQSVSSNLAWYQQKPGQAPRLLIYDASNRATGIPARFSGSGSGTDFTLTISSLEPEDFAVYYCQQREREPITFGQGTKVEIK
Consider B4, for which the “PRNT … with hACE-2” value in test [1] worked out at 10.4 nM. In addition, the IC50 in test [2] stood at 0.78 nM. Also, the half-maximal inhibitory concentration (IC50) in test [3] is 0.12 nM. In test [4], the dissociation constant Kd came to 0.14 nM, the koff turned out to be 0.000148 s⁻¹ and the kon is 1.09e+06 M⁻¹ s⁻¹.

B5: P5A10 (hIgG1) (antibody, V domains shown)
VH: EVQLLESGGGLVQPGGSLRLSCAASGFTFSSSAMSWVRQAPGKGLEWVSGIYGRGGSTYYADSVKGRFTISRDNSKNTLYLQMNSLRAEDTAVYYCATDSSTQPWYFDLWGRGTLVTVSS
VL: EIVLTQSPATLSLSPGERATLSCRASQSVSSNLAWYQQKPGQAPRLLIYDASNRATGIPARFSGSGSGTDFTLTISSLEPEDFAVYYCQQREREPITFGQGTKVEIK
Turning to B5, the EC50 in test [5] turned out to be 16.9 nM. Besides, the half-inhibitory concentration (IC50) in test [7] is 2.34 nM. In test [8], the Kd was determined as 28.8 nM, the koff amounted to 0.00367 s⁻¹ and the kon stood at 127000 M⁻¹ s⁻¹.
